The record followed here is paper PMC11497598.

Assay in all cases: analytical SEC
Common to all, as to conditions: cell culture supernatant of Expi293F cells; parent: est. 72; read off a plot

The target of experiment [1] is B/Iowa/06/2017 HA HA1 220F.
The target in experiment [2] is B/Iowa/06/2017 HA HA1 220N.
Experiment [3] deals with B/Iowa/06/2017 HA HA1 259V.
The target of experiment [4] is B/Iowa/06/2017 HA HA1 K209F.
In experiment [5] the target is B/Iowa/06/2017 HA HA1 K209I.
The target of experiment [6] is B/Iowa/06/2017 HA HA1 K209L.
Experiment [7] deals with B/Iowa/06/2017 HA HA1 K209Q.
In experiment [8] the target is B/Iowa/06/2017 HA HA1 K209T.
Experiment [9] concerns the target B/Iowa/06/2017 HA HA1 T211V.
Experiment [10] addresses B/Iowa/06/2017 HA HA1 T218N.
The target of experiment [11] is B/Iowa/06/2017 HA HA2 15P.
The target of experiment [12] is B/Iowa/06/2017 HA HA2 18P.
Experiment [13] concerns the target B/Iowa/06/2017 HA HA2 29P.
In experiment [14] the target is B/Iowa/06/2017 HA HA2 30W.
The target in experiment [15] is B/Iowa/06/2017 HA HA2 67T.
Experiment [16] has as its target B/Iowa/06/2017 HA HA2 91I.
Experiment [17] has as its target B/Iowa/06/2017 HA HA2 93A.
The target of experiment [18] is B/Iowa/06/2017 HA HA2 111Q.
Experiment [19] addresses B/Iowa/06/2017 HA HA2 E113F.
Experiment [20] deals with B/Iowa/06/2017 HA HA2 G68L.
Experiment [21] deals with B/Iowa/06/2017 HA HA2 G68Y.
For experiment [22], the target named is B/Iowa/06/2017 HA HA2 H114Q.
For experiment [23], the target named is B/Iowa/06/2017 HA HA2 H114Y.
Experiment [24] deals with B/Iowa/06/2017 HA HA2 Q64W.
In experiment [25] the target is B/Iowa/06/2017 HA HA2 S40A.
For experiment [26], the target named is B/Iowa/06/2017 HA HA2 S110W.

As to “wild-type soluble hemagglutinin (HA) of influenza B/Iowa/06/2017 HA1:220F”, the other: trimer fraction in [1] amounted to 85%.
Take “wild-type soluble hemagglutinin (HA) of influenza B/Iowa/06/2017 HA1:220N”: in [2], the other: trimer fraction was determined as 71%.
For the substance “wild-type soluble hemagglutinin (HA) of influenza B/Iowa/06/2017 HA1:259V”, the other: trimer fraction in [3] was found to be 92%.
Turning to “wild-type soluble hemagglutinin (HA) of influenza B/Iowa/06/2017 HA1:K209F”, the other: trimer fraction in experiment [4] was 96%.
For “wild-type soluble hemagglutinin (HA) of influenza B/Iowa/06/2017 HA1:K209I”, the other: trimer fraction in experiment [5] is 93%.
Take “wild-type soluble hemagglutinin (HA) of influenza B/Iowa/06/2017 HA1:K209L”: the other: trimer fraction in experiment [6] is 96%.
As for “wild-type soluble hemagglutinin (HA) of influenza B/Iowa/06/2017 HA1:K209Q”, in experiment [7], the other: trimer fraction was found to be 98%.
On to “wild-type soluble hemagglutinin (HA) of influenza B/Iowa/06/2017 HA1:K209T”, for which, in [8], the other: trimer fraction stood at 98%.
In the case of “wild-type soluble hemagglutinin (HA) of influenza B/Iowa/06/2017 HA1:T211V”, in experiment [9], the other: trimer fraction came to 78%.
“wild-type soluble hemagglutinin (HA) of influenza B/Iowa/06/2017 HA1:T218N”: the other: trimer fraction in experiment [10] turned out to be 89%.
Regarding “wild-type soluble hemagglutinin (HA) of influenza B/Iowa/06/2017 HA2:15P”, the other: trimer fraction in experiment [11] stood at 69%.
Consider “wild-type soluble hemagglutinin (HA) of influenza B/Iowa/06/2017 HA2:18P”, for which the other: trimer fraction in experiment [12] turned out to be 57%.
Consider “wild-type soluble hemagglutinin (HA) of influenza B/Iowa/06/2017 HA2:29P”, for which the other: trimer fraction in experiment [13] came to 77%.
On to “wild-type soluble hemagglutinin (HA) of influenza B/Iowa/06/2017 HA2:30W”, for which the other: trimer fraction in experiment [14] was determined as 69%.
As to “wild-type soluble hemagglutinin (HA) of influenza B/Iowa/06/2017 HA2:67T”, the other: trimer fraction in experiment [15] came to 77%.
Regarding “wild-type soluble hemagglutinin (HA) of influenza B/Iowa/06/2017 HA2:91I”, in [16], the other: trimer fraction worked out at 56%.
“wild-type soluble hemagglutinin (HA) of influenza B/Iowa/06/2017 HA2:93A”: the other: trimer fraction in experiment [17] is 87%.
With “wild-type soluble hemagglutinin (HA) of influenza B/Iowa/06/2017 HA2:111Q”, in [18], the other: trimer fraction was 84%.
As to “wild-type soluble hemagglutinin (HA) of influenza B/Iowa/06/2017 HA2:E113F”, the other: trimer fraction in experiment [19] worked out at 98%.
Consider “wild-type soluble hemagglutinin (HA) of influenza B/Iowa/06/2017 HA2:G68L”, for which the other: trimer fraction in experiment [20] came out at 97%.
Consider “wild-type soluble hemagglutinin (HA) of influenza B/Iowa/06/2017 HA2:G68Y”, for which, in experiment [21], the other: trimer fraction is 96%.
On to “wild-type soluble hemagglutinin (HA) of influenza B/Iowa/06/2017 HA2:H114Q”, for which, in [22], the other: trimer fraction is 65%.
As for “wild-type soluble hemagglutinin (HA) of influenza B/Iowa/06/2017 HA2:H114Y”, in experiment [23], the other: trimer fraction is 65%.
Turning to “wild-type soluble hemagglutinin (HA) of influenza B/Iowa/06/2017 HA2:Q64W”, the other: trimer fraction in experiment [24] is 93%.
Take “wild-type soluble hemagglutinin (HA) of influenza B/Iowa/06/2017 HA2:S40A”: in [25], the other: trimer fraction stood at 52%.
Take “wild-type soluble hemagglutinin (HA) of influenza B/Iowa/06/2017 HA2:S110W”: the other: trimer fraction in experiment [26] worked out at 51%.
